The values below come from patent US20210292393A1.

Common to all, as to details: remark: other sources report otherwise
For assay [1], the target named is SARS-CoV-2 full length spike protein, V483A mutant (SARS-CoV-2), P0DTC2.
In assay [2] the target is SARS-CoV-2 full length spike protein, V483A mutant, expressed on CHO cells (SARS-CoV-2), P0DTC2.
For assay [3], the target named is SARS-CoV-2 full length spike protein, V367F mutant, expressed on CHO cells (SARS-CoV-2), P0DTC2.
In assay [4] the target is SARS-CoV-2 full length spike protein, D614G mutant, expressed on CHO cells (SARS-CoV-2), P0DTC2.

Where “and” joins values, the source holds several entries; their conditions need not be identical. Identical values can stand only once.

B1: antibody 538 (antibody, V domains shown)
VH: QLQLQESGPGLVKPSETLSLTCTVSGGSISSSSYYWGWIRQPPGKGLEWIGSINYSGSTYYNPSLKSRVTISVDTSKNQFSLKLSSVTAADTAVYYCARYHDYGDDYWGQGTLVTVSS
VL: QLVLTQSPSASASLGASVKLTCTLSSGHSRYAIAWHQQQPEKGPRYLMKLNSDGSHSKGDGIPDRFSGSSSGAERYLTISSLQSEDEADYYCQTWGTGIQVFGGGTKLTVL
Turning to B1, in assay [1], the median fold over isotype (fold over isotype) was 1.48.

B2: antibody 524 (antibody, V domains shown)
VH: QVQLVESGGGVVQPGRSLRLSCAASGFTFSSYAMHWVRQAPGKGLEWVAVISYDGSNKYYADSVKGRFTISRDNSKNTLYLQMNSLRAEDTAVYYCAKAGGGSYYRGFDYWGQGTLVTVSS
VL: QSVLTQPPSVSAAPGQKVTISCSGSNSNIGNNYVSWYQQLPGSAPKLLIYDNDKRPSGIPDRFSGSKSGTSATLGITGLQTGDEADYYCGAWDSSLTALVFGGGTKLTVL
With B2, the median fold over isotype (fold over isotype) in assay [1] is 0.99 and 1.25.

B3: antibody 374 (antibody, V domains shown)
VH: QVQLQESGPGLVKPSGTLSLTCAVSGGSISSSKWWSWVRQPPGKGLEWIGEIYHSGSTNYNPSLKSRVTISVDKSKNQFSLKLSSVTAADTAVYYCARRELGEGTFTYWGQGTLVTVSS
VL: not shown
Turning to B3, the median fluorescence fold over isotype control (fold over isotype) in assay [2] is 1.22.

B4: antibody 436 (antibody, V domains shown)
VH: QVQVVESGGGVVQPGRSLRLSCAASGFTFSSYAMHWVRQAPGKGLEWVAVISYDGNNEYYVDPVKGRFTISRDNSKNTLYLQMNSLRAEDTALYYCATSREAIVVGGILDYWGQGTLVTVSS
VL: DIQMTQSPSSLSASVGDRVTITCQASHDINNFLNWYQQKPGQAPKLLIYDASNLETGVPSRFSGSGSGTDFTFTISSLHPEDVATYYCQQYDGLPRYVTFGQGTKLEIR
In the case of B4, the median fluorescence fold over isotype control (fold over isotype) in assay [1] turned out to be 0.85.

B5: antibody 304 (antibody, V domains shown)
VH: EVQLLESGGGLVQPGGSLRLSCAASGFTFSTYAMSWVRQAPGKGLEWVSAISGSGGSTYYADSVKGRFTISRDNSKNTLYLQMNSLRAEDTAVYYCASGYSPDYWGQGTLVTVSS
VL: AIQMTQSPSSLSASVGDRVTITCRASQGIRNDLGWYQQKPGKAPKLLIYAASSLQSGVPSRFSGSGSGTDFTLTISSLQPEDFATYYCLQDYNYPRTFGQGTKVEIK
In the case of B5, in assay [1], the median fluorescence intensity, fold over isotype control (fold over isotype) was found to be 0.66.

B6: antibody 464 (antibody, V domains shown)
VH: QVQLVQSGAEVKKPGASVKVSCKVSGYTLTELSMHWVRQAPGKGLEWMGGFDPEDGETIYAQKFQGRVTMTEDTSTDTAYMELSSLRSEDTAVYYCATARAFGVANWFDPWGQGTLVTVSS
VL: QSVLTQPPSASGTPGQRVTISCSGSSSNIGSNYVYWYQQLPGTAPKLLIYRNNQRPSGVPDRFSGSKSGTSASLAISGLRSEDEADYYCAAWDDSLSGLYVFGTGTKVTVL
On to B6, for which the median fluorescence intensity, fold over isotype control (fold over isotype) is 1.04 and 1 in assay [2]; 1.04 in assay [3]; 0.86 in assay [4].

B7: antibody 383 (antibody, V domains shown)
VH: EVQLVESGGGLVQPGGSLRLSCAASGFTFSSYDMHWVRQATGKGLEWVSTIGTAGDTYYPGSVKGRFTISRENAKNSLYLQMNSLRAGDTAVYYCARVAYSSSFVYWYFDLWGRGTLVTVSS
VL: DIQMTQSPSSLSASIGDRVTITCRASQSISSYLNWYQQKPGKAPNLLIYAASSLQSGVPSRFSGSGSGTDFTLTISSLQPEDFATYYCQQSYTTPLYTFGQGTKLEIK
Turning to B7, the median fluorescence fold over isotype control (fold over isotype) in assay [2] is 1.8; in assay [3], 11.4; in assay [4] it was 6.38.

B8: antibody 390 (antibody, V domains shown)
VH: EVQLVESGGGLIQPGGSLRLSCAASGFTVSSNYMSWVRQAPGKGLEWVSIIYSGGSTYYADSVKGRFTISRDNSKNTLYLQMNSLRAEDSAVYSCATTMVRGLIISYYYGMDVWGQGTTVTVSS
VL: QSALTQPASVSGSPGQSITISCTGTSSDVGGYNYVSWYQQHPGKAPKLMIYEVSNRPSGVSNRFSGSKSGNTASLTISGLQAEDEADYYCSSYTSSSTLVFGGGTKLTVL
For B8, the median fluorescence fold over isotype control (fold over isotype) in assay [2] was found to be 1.36.

B9: antibody 493 (antibody, V domains shown)
VH: EVQLVESGGGLIQPGRSLRLSCAASGFTVSITYMSWVRQAPGKGLEWVSLIYSGGSSYYADSVKGRFTISRDNSKNTLYLQMNSLRAEDTAVYYCATTMVRGVIISYYYGMDVWGQGTTVTVSS
VL: QSALTQPASVSGSPGQSITISCTGTSSDVGGYNYVSWYQQHPGKAPKLMIYEVSNRPSGVSNRFSGSKSGNTASLTISGLQAEDEADYYCSSYTSSSTLVFGGGTKLTVL
For B9, the median fluorescence intensity, fold over isotype control (fold over isotype) in assay [2] is 4.63 and 2.26; in assay [3] it was 4.82; in assay [4], 1.72.

B10: antibody 413 (antibody, V domains shown)
VH: EVQLVESGGGLIQPGGSLRLSCAASGFTVSGNYMNWVRQAPGKGLEWVSVIYSGGSTYYADSVKGRFTISRANSKNTLYLQMNSLRAEDTAVYYCASTSLVRGLIILYYYGMDVWGQGTTVTVSS
VL: QSALTQPASVSGSPGQSITISCTGTSSDVGGYNYVSWYQQHPGKAPKLMIYEVSNRPSGVSNRFSGSKSGNTASLTISGLQAEDEADYYCSSYTSSSTLVFGGGTKLTVL
Regarding B10, in assay [2], the median fluorescence fold over isotype control (fold over isotype) turned out to be 1.67.

B11: antibody 507 (antibody, V domains shown)
VH: QVQLQESGPGLVKPSGTLSLTCAVSGGSISSSNWWSWVRQPPGKGLEWIGEIYHSGNTNYNPSLKSRVTISVDKSKNQFSLKLSSVTAADTAVYYCARREWLRLFDYWGQGTLVTVSS
VL: QSALTQPASVSGSPGQSITISCTGTSSDVGSYNLVSWYQQHPGKAPKLMIYEVSKRPSGVSNRFSGSKSGNTASLTISGLQAEDEADYYCCSYAGSSTYVFGTGTKVTVL
On to B11, for which the median fluorescence intensity, fold over isotype control (fold over isotype) in assay [2] was 1.12.

B12: antibody 382 (antibody, V domains shown)
VH: QVQLVESGGGVVQPGRSLRLSCAASGFTFSNYGMHWVRQAPGKGLEWMTVISFDGRNKYYADSVKGRFTISRDNSKNTLFLQMNSLTTEDTALYFCASGRRPRYSSGWSFDYWGQGTLVTVSS
VL: DIQMTQSPSSLSASVGDRVTITCQASQDIGNYLNWYQQKLGKAPNLLIYDASNLETGVPSRFSGSGSGTDFTFTINSLQPEDTATYYCQQYDDPSITFGQGTRLEIK
Turning to B12, the median fluorescence fold over isotype control (fold over isotype) in assay [2] is 0.88.

B13: antibody 485 (antibody, V domains shown)
VH: QVQLQESGPGLVKPSGTLSLTCAVSGASISSSNWWSWVRQPPGKGLEWIGEIYHSGSTNYNPSLKSRVTISVDKSKNQFSLKLSSVTAADTAVYYCARRSYYGSGSYYPFDYWGQGTLVTVSS
VL: QSALTQPASVSGSPGQSITISCTGTSSDVGSYNLVSWYQQHPGKAPKLMIYEGRKRPSGVSNRFSGSKSGNTASLTISGLQAEDEADYYCCSYAGSSTYVFGTGTKVTVL
Turning to B13, the median fluorescence intensity, fold over isotype control (fold over isotype) in assay [2] turned out to be 1.11.

B14: antibody 472 (antibody, V domains shown)
VH: EVQLVESGGGLIQPGGSLRLSCAASGFTVSSNYMSWVRQAPGKGLEWVSVIYSGGTTHYADSVKGRFTISRDNSKNTLYLQMNSLRAEDTAVYYCANYGMDVWGQGTTVTVSS
VL: SYELTQPSSVSVSPGQTARITCSGDVLAKKYARWFQQKPGQAPVLVIYKDSERPSGIPERFSGSSSGTTVTLTISGAQVEDEADYYCYSAADKVFGGGTKLTVL
Regarding B14, the median fluorescence intensity, fold over isotype control (fold over isotype) was 2.35 and 2.49 in assay [2]; 3.19 in assay [3]; 1.22 in assay [4].

B15: antibody 551 (antibody, V domains shown)
VH: EVQLVESGGGLVQPGGSLRLSCAASGFTFSSYWMSWVRQAPGKGLEWVANINQDGSDKYYVDSVKGRFTISRDNAKNSLYLQMNSLRAEDTAVYYCARAPGWAAAPTFDYWGQGTLVTVSS
VL: QSALTQPRSVSGSPGQSVTISCTGTSSDVGGYNYVSWYQQHPGKAPKFMIYDVSKRPSGVPDRFSGSKSGNTASLTISGLQAEDEADYYCCSYAGSYTLVVFGGGTKLTVL
For the molecule B15, the median fold over isotype (fold over isotype) in assay [1] amounted to 1.7.

B16: antibody 505 (antibody, V domains shown)
VH: EVQLVESGGGLVKPGGSLRLSCAASGFTFSSYSMNWVRQAPGKGLEWVSSISSSSSYIYYADSVKGRITISRDNAKNSLYLQMNSLRAEDTAVYYCAREYPNFRAEWLLSPYGMDVWGQGTTVTVSS
VL: QSALTQPASVSGSPGQSITISCTGTSSDVGSYNLVSWYQQHPGKAPKLMIYEVSKRPSGVSNRFSGSKSGNTASLTISGLQAEDEADYYCCSYAGSSTSVKVFGTGTKVTVL
Regarding B16, the median fluorescence intensity, fold over isotype control (fold over isotype) in assay [2] was 1.

B17: antibody 389 (antibody, V domains shown)
VH: QVQLVESGGGVVQPGRSLRLSCAASGFTFSSYAMHWVRQAPGKGLEWVAVISYDGSNKYYADSVKGRFTISRDNSKNTLYLQMNSLRAEDTAVYYCASQGRMYVRGVDYGVYWGQGTLVTVSS
VL: NFMLTQPHSVSESPGKTVTISCTGSSGSIASNYVQWYQQRPGSAPTTVIYEDNQRPSGVPDRFSGSIDSSSNSASLTISGLKTEDEADYYCQSYDSSKISHAVFGGGTQLTVL
For the molecule B17, the median fluorescence fold over isotype control (fold over isotype) in assay [2] is 1.24.

B18: antibody 544 (antibody, V domains shown)
VH: QVQLQQWGAGLLKPSETLSLTCAVYGGSFSGYYWSWIRQPPGKGLEWIGEINHSGSTNYNPSLKSRVTISVDTSKNQFSLKLSSVTAADTAVYYCARGFKWFGELLFGAQGTLVTVSS
VL: not shown
For B18, the median fold over isotype (fold over isotype) in assay [1] amounted to 1.58.

B19: antibody 490 (antibody, V domains shown)
VH: QVQLQESGPGLVKPSGTLSLTCAVSGGSISSSNWWSWVRQPPGKGLEWIGELYHSGSTNYNPSLKSRVTISVDKSKNQFSLKLSSVTAADTAVYYCARVGPYYYDSSGYYNYFDYWGPGTLVTVSS
VL: EIVLTQSPATLSLSPGERATLSCRASQSVSSYLAWYQQKPGQAPRLLIYDASNRATGIPARFSGSGSGTDFTLTISSLEPEDFAVYYCQQRSNWPPGITFGQGTRLEIK
Consider B19, for which the median fluorescence intensity, fold over isotype control (fold over isotype) in assay [2] was 1.15 and 1.13 and 1.52; in assay [3], 1.14; in assay [4], 1.03.
